Experimental findings from US20110294137A1 (MEDICAL RESEARCH COUNCIL, published 2011) are described below.

Series [1] concerns the molecule itself. As to the kind of experiment: right angle light scattering at 340 nm, self-polymerisation, 4 mM ATP.
Series [2] concerns the target T1, Rv1827, P9WJA9.
T1 chain: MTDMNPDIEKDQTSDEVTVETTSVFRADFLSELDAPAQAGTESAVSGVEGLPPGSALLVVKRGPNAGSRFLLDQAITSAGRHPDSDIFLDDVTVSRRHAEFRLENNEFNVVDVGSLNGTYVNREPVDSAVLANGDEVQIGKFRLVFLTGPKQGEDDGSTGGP

B1: wild-type ParM (other)
chain: MLVFIDDGSTNIKLQWQESDGTIKQHISPNSFKREWAVSFGDKKVFNYTLNGEQYSFDPISPDAVVTTNIAWQYSDVNVVAVHHALLTSGLPVSEVDIVCTLPLTEYYDRNNQPNTENIERKKANFRKKITLNGGDTFTIKDVKVMPESIPAGYEVLQELDELDSLLIIDLGGTTLDISQVMGKLSGISKIYGDSSLGVSLVTSAVKDALSLARTKGSSYLADDIIIHRKDNNYLKQRINDENKISIVTEAMNEALRKLEQRVLNTLNEFSGYTHVMVIGGGAELICDAVKKHTQIRDERFFKTNNSQYDLVNGMYLIGN
notes: Unlabelled, without His6 tag (plasmid pJSC1); also called ParM wild-type
As for B1, the “critical concentration (filament formation, in presence of ATP)” value in series [1] was 2.5 µM.

B2: PknB kinase domain (PknB 1-279) (protein)
chain: MTTPSHLSDRYELGEILGFGGMSEVHLARDLRLHRDVAVKVLRADLARDPSFYLRFRREAQNAAALNHPAIVAVYDTGEAETPAGPLPYIVMEYVDGVTLRDIVHTEGPMTPKRAIEVIADACQALNFSHQNGIIHRDVKPANIMISATNAVKVMDFGIARAIADSGNSVTQTAAVIGTAQYLSPEQARGDSVDARSDVYSLGCVLYEVLTGEPPFTGDSPVSVAYQHVREDPIPPSARHEGLSADLDAVVLKALAKNPENRYQTAAEMRADLVRVHNG
Regarding B2, in series [2], the KM result is “KM, 20 µM”; the “KM value (Michaelis-Menten, initial rate against Rv1827 concentration)” value is recorded as “a KM value of 22 µM”; the kcat entry is “kcat 4.7 min^-1”; the “kcat (300 µM Rv1827, ATP varied)” value is recorded as “kcat, 4.9 min^-1”. Further, in series [2], the maximal rate entry was “a maximal rate of 1.2 µM min^-1” and the specific activity entry was “the specific activity of the PknB kinase domain was calculated for 40 µM ATP as 5.9 s^-1”.
